According to the supplement of paper PMC9170038:

Tested on: K4 kissing-loop RNA reporter
Assay: apparent KD of K4 kissing-loop reporter; higher = weaker reporter binding
Conditions: Eterna round: R107
Procedure: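 RNA-MaP round R107: designed RNA switches with theophylline, tryptophan, arginine or FMN aptamers are transcribed on-chip within common flanks. They are titrated with a labelled K4 kissing-loop RNA reporter in RNA-MaP buffer (100 mM Tris pH 7.5, 80 mM KCl, 4 mM MgCl2), without ligand or with the indicated ligand. Median apparent KD per design.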

[1] = input ligand: theophylline 20 uM
[2] = input ligand: tryptophan 2.4 mM
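Also: bound reporter read as fluorescence of individual clusters on recovered sequencing chips by microscopy, with normalized cluster intensities fitted with a binding model.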

| Sequence | apparent KD of K4 kissing-loop reporter (input ligand: FMN 200 uM) [nM] | apparent KD of K4 kissing-loop reporter (input ligand: arginine 13.2 mM) [nM] | apparent KD of K4 kissing-loop reporter (input ligand: none) [nM] | apparent KD of K4 kissing-loop reporter [1] [nM] | apparent KD of K4 kissing-loop reporter [2] [nM] |
| --- | --- | --- | --- | --- | --- |
| ACGCUUGAAUAACAAGCGAAAUAAAAUUCGCGAGGACCGGUACGGCCGCCACUCGCUAACUGCGAGUGAUGUUCGAUAAUAAAAU [Mat - Mod of OpenEnded 3 - D16] | 139 | 80.2 | 129 | 208 | 69.1 |
| ACGGAUUCGAAUACCGAAUGAAAUAGGGAUACCAGCACGUGAACGUGCCCUUGGCAGCCCAGCCCAGUGAUGUUGGGCCCAUGGC [Biso] | 173 | 185 | 179 | 212 | 204 |
| ACGUAGUUCUAGGAUACCAGCCAAGGUGCCAGGACAAAAGUCCUGGCAGUCAGUGAUGUUGGCCCUUGGCAGCCUAGAACUACGA [Omei KL Theo B Exc B v8] | 176 | 196 | 215 | 209 | 218 |
| ACGUAUAUCAGAGGAUAUCGUAUUAAUAUUUUAUCUAUAUAGUUUUGCAGUGAUGUUGCAAUUAUUCGAGAAGGCUGAUUUACGA [JR_SSFMNB_Sub024] | 86.1 | 95.6 | 75.3 | 89.2 | 69.2 |
| ACGUGAAGCGACUCCUAGUUAAACCGGGAAGGAGCGCGGAUAACCGCAGGUAGGUCGCCCGGAAGCCGGACCAGUGAUGUUGGUC [Exclusion Arginine A Gf 26] | 263 | 191 | 207 | 217 | 198 |
| ACGUGCACCAGUGAUGUUGGAAAAUAUGAAGGAGCGUGCGAAAGCACAGGUAGGUCGCAUAAUAGCACGAGCCACGAAAGUGGCA [#SwitchBubble 6 #K4Early #Sliding] | 131 | 159 | 134 | 132 | 102 |
| ACUAGUUAAUCGGCCGCCACUUCUAGUGAUGUUAGAAUUAUCCAGAUUAUCAGCGUAGCACAUUGAAGGACCGGGAUAAGGUGGU [theeternabot_exclusion_KL_Trp_B_2] | 275 | 236 | 269 | 273 | 261 |
| ACUGAAAGAUCUGAUACCAGACUUUUUGUAUUUAUUAAAACUAGUGAUGUUAGUUUAUCAGUCCCUUGGCAGCAGUUACUACAGA [JR_Nu_ExcTheophyB_Sub024] | 91 | 106 | 105 | 103 | 95.4 |
| ACUGCCAUUGCGGCCGCCACUAUCUCACUUUGCGAAUCUGCACCGACUGAGUGAUGUUCGGUAAAUAGGACCGGGCAAUGGGCCG [theeternabot_sameState_KL_Trp_B_26] | 611 | 479 | 633 | 281 | 657 |
| ACUGGGUUGACGAAAGUCAACAAAAGAGAAGGAGCGCACGAAAGUGCAGGUAGGUCGCUCAUUCCAGUGAUGUUGGAUCACCAGA [#SwitchBubble 18 #K4Late] | 242 | 366 | 453 | 279 | 199 |
| ACUUGAGCACAAAGCACACCAAGCAGUAGGUAGGAUAUCCGGCUUAGGAGAAGGACCAUGCAGUGAUGUUGCAUGCUCCUCCAUG [Onraordi] | 267 | 94.7 | 101 | 102 | 93 |
| AGAAACUUGUAUGUCGAGUGUGCGCGCGAUACCAGCCAAAUGGAUGGCCCUUGGCAGCGCUGCGAGUGAUGUUCGCCCGCUUGAC [#18 K4 Theophylline A Exclusion] | 210 | 244 | 203 | 192 | 174 |
| AGAACUGUCUGAGAUACCAGCUAAGGAGUGAUGUUCCUAGCUCCACGAAAGUGGAGCCAUAGCCCUUGGCAGCUCAGACAGUUCA [Omei KL Theo B SS A v6] | 866 | 588 | 1050 | 584 | 747 |
| AGACCACAAAGUGGUCAGUGUUCGCGGCAGCGAGGACCGGUACGGCCGCCACUCGCGAGUGAUGUUCGCGAGAGCCGCGAACACA [Omei KL Tryp A Exc A v8] | 82.7 | 80.9 | 82.6 | 93.8 | 99.6 |
| AGACCACAAAGUGGUCAGUGUUCGCUGCAGCGAGGACCGGUACGGCCGCCACUCGCGAGUGAUGUUCGCGAGCGCAGCGAACACA [Omei KL Tryp A Exc A v5] | 95.9 | 68.1 | 92.6 | 75.6 | 114 |
| AGACGCCAGUCGGCCGCCACUCACAGCAGUGAUGUUGCUGAAAAUCUAGAAGAGUGAUGUUCUUAGAGGACCGGGACUCCAGUCG [Same State Tryptophan B GF 6] | 162 | 153 | 169 | 141 | 172 |

| Sequence | apparent KD of K4 kissing-loop reporter (input ligand: FMN 200 uM) [nM] | apparent KD of K4 kissing-loop reporter (input ligand: arginine 13.2 mM) [nM] | apparent KD of K4 kissing-loop reporter (input ligand: none) [nM] | apparent KD of K4 kissing-loop reporter [1] [nM] | apparent KD of K4 kissing-loop reporter [2] [nM] |
| --- | --- | --- | --- | --- | --- |
| AGACUACCACACUGUCAAUAGACAGUGAGCUAGGAUAUGCUGAUAAGCAGAAGGAGUGAUGUUCCUUGGUAGUCAAUAAAAUAAU [FmnAX 13 G29+U67] | 366 | 271 | 285 | 319 | 280 |
| AGACUACCACACUGUCAAUAGACAGUGUACUAGGAUAUGCUGAUAAGCAGAAGGAGUGAUGUUCCGAGGUAGUCAAUAAAAUAAU [FmnAX 13 U28+G66] | 326 | 258 | 253 | 330 | 242 |
| AGAGUUAUGCGAGGAUAUGCGGUUAGUACUCAAAGAGUACUAACGCAGAGUGAUGUUCUGUGAAACACAGAAGGCGCAUAACUCA [Omei KL FMN B SS B v1] | 854 | 160 | 475 | 448 | 441 |
| AGAUCUGUAACAGAUACCAGAGGACGAUGAUCGGAUAGUGAUGUUAUCUGUCAGUCGUCGCUCCCUUGGCAGCUGUUACAGAUCA [Omei KL Theo B SS B v1] | 176 | 147 | 174 | 135 | 157 |
| AGAUUCGACACGGCCGCCACUCGUGGUGGAUUACCGAGUGUCGAAGUUGAGUGAUGUUCAAGUACGAGGACCGGGUGUUGAGUCU [KL-XTryp-B9 #analogue] | 193 | 204 | 198 | 163 | 435 |
| AGCGACUCUUCGGAGUCGCGGCUAAGGGAUACCAGUGAUGUUGGUCACCCUUGGCAGCCCAGAAGCCAAGCCACCAAAGGUGGCA [Omei KL Theo A Exc A v5] | 104 | 98.6 | 111 | 114 | 113 |
| AGCGAGAUACUUGUCUAGUAUACUACAGAUACCAGACAAGUACUAGUCCCUUGGCAGCUGUAGAUCGAGUGAUGUUCGAGUCGCU [Theo A SS t1] | 527 | 415 | 516 | 430 | 389 |
| AGCGAGUGAUGUUCGCUGAUCAUGUGAAGUUAGGAUAUAUACUUGCAUAGAAGGAACUAUUACAUGACAUUAGAGGCAGUAGUUC [FMN A SS t7b] | 165 | 173 | 167 | 171 | 128 |
| AGCUAGUACGCAGGAUAUCGAACAUCAUUUAGUGAGAUCGAGUGAUGUUCGAUCACGUCUUCAGUUCGAGAAGGGCGUACUAGCA [#01 K4 FMN B Same State] | 349 | 423 | 1090 | 1220 | 777 |
| AGCUCACACGGAAGGAGCGGAUAGAACUGACAGUUGGGCUCAAGUGAUGUUUGGGCUUGAAUCCAGGUAGGUCGCCGUGUGAGCU [Arg B SS t12] | 136 | 96.3 | 109 | 123 | 123 |
| AGCUCAGAGUGACUCGAUAAGAGUCACAAACGAGGACCGGUACGGCCGCCACUCGAAAUAACGAGAGUGAUGUUCUUGCUGAGCA [FiskerMod 7 - Jieux - Same State Tryptophan A] | 1320 | 487 | 976 | 631 | 386 |
| AGGCACGAGCAAGGAUAUCGAGUAGAGUGAUGUUCUGCCUGGGUUGGCGCGGAAGGGCCUUCCCAGCGAGAAGGUGCUCGUGCCU [#2 Same State - FMN A Attempt #10 (HarryS)] | 293 | 569 | 838 | 615 | 786 |
| AGGCACGAGCAAGGAUAUUGAGUAGAGUGAUGUUCUGCCUGGGUUGGCUCGCAAGAGCCUUCUCAGCGAGAAGGUGCUCGUGCCU [#2 Same State - FMN A Attempt #25 (HarryS)] | 286 | 471 | 674 | 614 | 594 |
| AGGCCGAGCCAAGGAUAUUGUCAGAGUGAUGUUCGCCAAUACUCCAGCCGCGCCUCAUCAGCUGAGCAAGAAGGUGGUCCUCUCA [theeternabot_exclusion_KL_FMN_B_47] | 244 | 199 | 221 | 207 | 209 |
| AGGGACGAUAGCGAUACCAGAGGUCGCAAAUUCGCGCCGUUUUUUAGGAAGUGAUGUUUUCUCCCUUGGCAGCGCCCUUAGAGUU [theeternabot_exclusion_KL_Theo_B_47] | 881 | 435 | 945 | 795 | 688 |
